A word on the Kd: it is the equilibrium constant for the complex coming apart.

Experiment [1] addresses soluble TACE M-domain (wild type) (Homo sapiens) (UniProt P78536). Description: SPR. (In general: In SPR one partner is held on a chip, and binding of the other changes the refractive index at the surface.)
Experiment [2] has as its target recombinant soluble TACE ECD (human) (UniProt P78536). Description: SPR.

On to MEDI3622 (antibody), for which the Kd in experiment [1] came out at 2.3 nM; in experiment [2] it was 2 nM.

The record behind these values is PMC5098442.
